Data from PMC4351158 (Structure (London, England : 1993), 2015).
Positions count from the first letter of the chain named. Where no end group is shown, it is not given here. fluorescein = fluorescein, a fluorescent label on the peptide N-terminus

Experiments:
Test in all cases: fluorescence polarisation
[1] = biological target: T1, wild-type DegS (residues 27-355, without the membrane anchor) (E. coli, UniProt P0AEE3 27-355)
T1 sequence (looked up): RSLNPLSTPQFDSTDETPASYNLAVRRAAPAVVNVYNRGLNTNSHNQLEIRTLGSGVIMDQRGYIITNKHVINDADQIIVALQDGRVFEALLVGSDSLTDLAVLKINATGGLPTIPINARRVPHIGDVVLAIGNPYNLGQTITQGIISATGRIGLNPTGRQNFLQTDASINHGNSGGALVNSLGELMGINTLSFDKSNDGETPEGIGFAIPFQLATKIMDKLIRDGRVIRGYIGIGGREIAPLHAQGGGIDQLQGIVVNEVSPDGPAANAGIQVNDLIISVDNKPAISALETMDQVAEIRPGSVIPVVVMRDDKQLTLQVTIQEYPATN

[2] = biological target: T2, DegS F234A (E. coli, UniProt P0AEE3 27-355, F234A)
T2 sequence (looked up): T1 sequence (looked up) with F208A

[3] = biological target: T3, DegS P161A/H198P (E. coli, UniProt P0AEE3 27-355, P161A | H198P)
T3 sequence (looked up): T1 sequence (looked up) with P135A, H172P

[4] = biological target: T4, DegS L164A/H198P (E. coli, UniProt P0AEE3 27-355, L164A | H198P)
T4 sequence (looked up): T1 sequence (looked up) with L138A, H172P

[5] = biological target: T5, DegS T167V (E. coli, UniProt P0AEE3 27-355, T167V)
T5 sequence (looked up): T1 sequence (looked up) with T141V

[6] = biological target: T6, DegS I179A (E. coli, UniProt P0AEE3 27-355, I179A)
T6 sequence (looked up): T1 sequence (looked up) with I153A

Kd [1]: 4000 ± 400 nM
Kd [2]: 5900 ± 600 nM
Kd [3]: 2500 ± 400 nM
Kd [4]: 2500 ± 500 nM
Kd [5]: 1800 ± 100 nM
Kd [6]: 2300 ± 400 nM
B1: fluorescent OMP peptide fluorescein-DNRDGNVYYF (peptide)
peptide: fluorescein-DNRDGNVYYF
